Experiment: label from the status in PepcDB records
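Further: failed if final PepcDB status was selected cloned or expressed and not failed if soluble or beyond.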

**Q.** For “MNKPTLGIDLDTTLNTLDREWVKRYNEIYKDKLLPSDIKGWDIENYVKPECGKKIYDILKEPHFFRNLGVQPFAETALEELTSIFNIYIVSATHYKVCEDKGNWIKEKFPFISYQNIIFCHNKGLVHLDILIDDNPLNLENFKGNKILFDAHHNKSENRFVRARDWYEAKALCESLKDFL”, which protein production is on record?
**A.** failed

**Q.** For “VKNGNDTRMTLLNNWESTYFDFDENKLIGLMDEATKLGVDMFLLDDGWFANKYPRSSDHQGLGDWEETADKLPNGVGRLVEEAQKKGIKFGIWIEPEMVNPKSELYEKHKDWVIHLPNRDEYYFRNQMVLDLSNPKVQDHVFGVVDNLMTKYPGIAFFKWDCNSPITNIYSVYLKDKQSHLYVDYVRGLYKVLDRIKAKYPNLPMMLCAGGGGRSDYEALKYFTEFWPSDNTDPIERLFIQWGYSQIFPSKTLCAHVTTWNRGTSIKFRTDVAMMCKLGFDIKLEDMNQNEHLYCDQAVKNYNRLKPVILEG”, which protein production is on record?
**A.** failed

**Q.** Which protein production does the source give for “NRWITRPKFTHFDLHTLNWDLCLTQANHKSGLALDMLRMLLDSLPQTVSAIEAALSQNDQVTMLSTIHKLHGASCYCGVPTTQRLCQEIESALKREARVEDLEPEILELLDELTKVESAAKQVLSQLSAEITDDQKNGLL” here?
**A.** failed

**Q.** With “MAGKRKKPKDTDLPPRVYRGKSKYEFHPARGGSISLCPLDAPISQVWSDYEKVNDRLPEKVTLNKLTEQFLHSMDFCELAIETQKDYRKYSLKLLPVFGEMSPDNIRPEHIRKYMDKRGITSRTQANREKTFLSRVYRWGYERGMVKGNPCRGVKQFTEKARDRYITDEEYDAVYQVAPDVVRVAMEIAYLCLARQADVLALRRDQLREPGIYIKQGKTAARQIKAWSERLRDAITLAESLPLKSGISSVYIIHQRTGLRYTRDGFNSKWRKAREVAKKTYPELDFNFTFHDLKAKGVSDLEGTLSEKQAISGHKNMGQTARYDRKIKIVPVVGNQKK” as the sequence, how does the protein production read?
**A.** failed

**Q.** Which protein production does the source give for “SIPMRLLSDCPQFSRKTVKLLTNGGDMLELCYELRLPFVHWISVNQKSSFKRYEISHVYRRAIGHSPPNPCLQADFDIVGGTLSLTEAEVLKVIVDITTHIFHRGSCDIHLNHGDLLDAIWSWAGIKAEHRRKVAELLSMMGSLRPQSSERKLKWVFIRRQLLQELKLPEAVVNRLQTVASRFCGDADQALPRLRGALRADRPTRKALDELSNLLTYLRVWRIEEHVHIDVLMPPTESYHRNLFFQVFLTKENSSGTSNDGVLLAVGGRYDWLVQEVCDREHKMNLPGAVGVSLALETIFQHLPMDLRPIRNEVSTSVLVCSRGGGGLLVQRMELVAELWEKSIKAEFVPTPDPSLTEQYEYANEHEIKCLVIITESGVAQNQIEFVKVRHLELKKEKVVGR” here?
**A.** not failed

**Q.** For “MRKKLNNEYRSAKKIRYMPGLDGLRAIAVIGIIIYHLNKQWLTGGFLGVDTFFVISGYLITSLLLKEYEDTGTINLKNFWIRRIKRLLPAVFALIVVVGIATLLLHPEHIVRVKHDMIAAIFYVSNWWYIAKDVNYFEQFSFMPLKHLWSLAIEEQFYLFFPAVLLLFMAIVKKKKNVILMFWIISLVSLLMMVVISQPHLNHSRVYFGTDTRLQTLLLGVLLAFIWPPFKLNPNPPKGLKTVINSAGIIGLTFLILLFFTVSDESDWIYNGGFYLISTMTLLIIASVVHPTTILAKLLGNPLFVYIGKRSYSLYLWHFPVISFIHSYFIDGQLPTYVYIMDIVITVLLAELSFRYVETPLRKEGLKAFTFKKTYKPQFIRTIVTLIMLLPFIFILVGAFDKFGKDTISNKAQTFNTNEADQYLIHMIPIDNISLTSDGKTKENKKDNDVYTQIKPLLIGDSVMVDIGEQFKTKVPKAKIDGKVGRQLYQAESLVKNQYRHYNKPSDQIILELGTNGDFTKEQLDNLIDKFGKAQVYLVNTRVPRSYESHVNELMAKAAKNKKNVTLIDWYSRSKGHTEYFAPDGIHLENDGVEALTDEILKNIKKK”, which protein production is on record?
**A.** failed

**Q.** With “MSLRDYTRKRRFDQTPEPAEDAAATAHRQPIFVVQLHHASSRHYDFRLEADGVLKSWAVPKGPSLRAGEKRLAVQVEDHPLAYAGFEGDIPQGQYGAGHVQVFDHGTWHCDGDALAALDAGKLDFDLQGDKLRGGFALVRTRLRGRQPQWLLIKRDDAHAADLDADALVADSDATAQAIETPSAAAAPARRAKASRRRRTPAEALVTEKSASASRPRASAATQAHWRTRALALPGARDAACPTGLRAQLTLLRAEAPDGAQWPHEIKWDGYRLLTDLVDGRAQLRSRNDQAWTDSFPEVATAVQALPVRDARLDGELVVLDAQGRSDFSALQRAIDGTARQPLRYLVFDLLGVAGVDLRATPLLERKQLLRALLGETPGTLAYSAHVIGRGPEVFAASADKGWEGIVSKRADAPYRGGRSADWVKTKHEDSDEFVVVGYTDPKGARSGFGALLLAQLDGTQLRYVGRVGTGFDSALLGEITAQLQALHSPQPTLELPAHIPSRPRDVHWVRPVLIAEVAFRGWAKQGLLRQAAFKRLREDKPMSDLGGDRATPGKSRGARTRTAAAAAGKASRAAATRTAAVSAGGSAAKPGKAGKSSTAADVSTPSRVAKQRVTPAASSAAKPGKPGKSSAAATGTASPRAAKRGAVSTASASSTPKSGKRSVSSGSAASGKPAAPSKAASSKTARTPATSSARKTSTATAASSIRKARASASNAPDGVAITHPERVVFPAAGISKGDVAAYYRAVAPLVLPEIARRPLSLLRCPDGAAGACFFQKHEGRHLGAHIKAIPLKQKSGTEDYLYIEDVAGLLELVQMNTLELHPWGARVDDPEHPDRLVFDLDPGEGVAWTQVVAAAREIRSKLRAAGLESAVRLSGGKGLHVVVPIVPQASWDQARDFCEAFAQALATQAPERYVATMSKAKRHGVIFVDWLRNGRGNTSVCSWSLRAREHATVAVPLRWEELGKLSGPDAFPLDKAVQRAKRQRNDPWADVLALKQVLPG” as the sequence, how does the protein production read?
**A.** failed

**Q.** For “MRMEDEDYNTSISYGDEYPDYLDSIVVLEDLSPLEARVTRIFLVVVYSIVCFLGILGNGLVIIIATFKMKKTVNMVWFLNLAVADFLFNVFLPIHITYAAMDYHWVFGTAMCKISNFLLIHNMFTSVFLLTIISSDRCISVLLPVWSQNHRSVRLAYMACMVIWVLAFFLSSPSLVFRDTANLHGKISCFNNFSLSTPGSSSWPTHSQMDPVGYSRHMVVTVTRFLCGFLVPVLIITACYLTIVCKLQRNRLAKTKKPFKIIVTIIITFFLCWCPYHTLNLLELHHTAMPGSVFSLGLPLATALAIANSCMNPILYVFMGQDFKKFKVALFSRLVNALSEDTGHSSYPSHRSFTKMSSMNERTSMNERETGML”, which protein production is on record?
**A.** failed

**Q.** Which protein production does the source give for “MDPFDAGQAQRGNGSTESSGREDREGEEAQWVGVLTHAVLAADDPANLGDSAPAEGGHDQMLEEWAAEEGQNPLEDRQEAVRRVNAWNQGELNLAMLRLTSLPPLPAGLHSLDASFNRLTSLPETLPDALNSLNVNGNQLVSLPALPAGLALLDVWSNRLTSLPETLPAALEGLNVGNNQLTSLPEALPARLESLDVSVNQLTSLPETLPASLGSLDVGVNQLTSLPETLPTSLGRLYLNDNQLTSLPTGLLTQLGAAAEVVVSGNPLPQEMLMNLDTIQSTDGYAGPRVVFDLSETHEDQWEDAAVAPFPLETVAAESLPEAVADWLNGDPKEGDPEVVAKWQSFAEEPGAQQYADFLNGLRNTVNSGNEGFQQGVANDLRQAAANPQLRAQYFQLALDANESCADRRTLTWNGMQTARLIANVENGLYDNNEGVAALVDLGRVMFRLEALGGIAREKVQSLRTGGTINNVDEIEVYLAYQATLRERLGLQHIAPDMNYFYDSHLTEEDIDRAETSVRSKEATGFADYLATDWKPWDDVVLRIEPEHHATMEEKLADALEEEFPGRLKQKLVEAGLIGAEADVVADAEREFGPQVSKDIAREIKGALRDTVLNKRGLSL” here?
**A.** failed

**Q.** With “MIHYYKLFWINALNIKGRARRKEFWYPFLMNILINIMLEIIFFLLPIPAIIEDTVGWIVYILILVAMFTVTVRRFHDVGMTMLIPIIIFLIAVINDFSEFINSDIPTLDNSALTVIAVIFGVVYIVILIVSLAVCCTSGQKETNQYGVNPKAVE” as the sequence, how does the protein production read?
**A.** failed

**Q.** Which protein production does the source give for “MRITHLGHSCILVEAAGQRILVDPGNLSRSWRGLTDLDAILVTHRHPDHVDPEHIGALVDANSGAVVRAEEGACHEIPALDADPVAPGDVLQIGEVRIEAVGGRHAVIHRDLEPIGNVGYLIGEGLGTILYHPGDELDETPRGVDVLACPAHAPWAAMKETVDFARSVGARHGFLIHEGLLNGRGWQLSFDRHQEMVPTTFHDLRNGQPWEVPQDLEHHHHHH” here?
**A.** failed

**Q.** Which protein production does the source give for “MPSRKFADGEVVRGRWPGSSLYYEVEILSHDSTSQLYTVKYKDGTELELKENDIK” here?
**A.** not failed

**Q.** Which protein production does the source give for “MRLERTFDPNDLSTQNMESPICLPIGFVHFLAQSQTLQQVLDTVAEWINRIFESDRTSITLYENSDYLKVYSFSGNKAIPADFLVPIDQAFVGRVFKNQQLIICDDVSQSDELDCVMLTSSGMGTCMDAPLMHGQMCLGTLNVAHHQTHFYTKEQAAQLQCIANWIALNIALHIQIMKMEHLATTDDLTGIPNRREFMRQIEHRLSEFRTQGIKFHVAILDLDNFKKLNDKFGHDAGDKSLIHAANTIKGHLRECDLLARVGGEEFAIVLRSRSSQEAMDTLETIRNALETTTIRYSGRDMTFTASIGVTQVCGLDDSFEPLVKRADLALYKAKETGRNRVEINHSEHQGVSNEQ” here?
**A.** failed

**Q.** Which protein production does the source give for “MPTKKMTRAQTCPHQTTVISNLKIIPLTLGWLLKSALLIIIIAVFIPLSPKMPAPGLDASWAVGLNQAVAQGLAFGKDIFFTLGPYSSIYTKFYHPATDFMMVGGSLYLALCYWIAIILLMQGIKWRWSIAFAILLFSMIYARDSLFFSYSLIIGLLIHKEISGKETSFKSNFCTLFALLFTPFGLFPLIKGSLLILSIITVLLCSLFLILYKQRNLAVLCLASPVVSILFFWIASGQSIFNLPAYVSNTILLASGFTEAMAIEGDNKELIFFGVTSSCILLSILLQKQLSPLSKAFLFCIYLVFLFLSYKTGFTRHFGHAFIAGTSVLLASFLLPYFNSNNKVIVPLLALSLYTASYINGHYTKISVRDNFISTYTAAYYGLKNRIQNKNWLKENFSLTMNYLKARDDFPRLPGTTDIYSYNQTSLIASGMTWSPRPIFQSYSVFTAKMAEINTNYLLSENKPDNILFKVEPIDNRIPSMEDGMSWPILINHYQPVRLENDFLFLRKKLVNKPVTSLVPLKTEIHTFGEQVKIPDTDKSLFVEIDIQPTLWGMLATTFFKPHQLEANLELKNGTQRQYRLISNMAKSGFLLSPFIENSAEFGLLFSQNNYLAGKKVISFSINSKQVPSSHWQTKYTIHYKTFASNN” here?
**A.** failed

**Q.** With “MQKIALCITGASGVIYGIKLLQVLEELDFSVDLVISRNAKVVLKEEHSLTFEEVLKGLKNVRIHEENDFTSPLASGSRLVHYRGVYVVPCSTNTLSCIANGINKNLIHRVGEVALKERVPLVLLVREAPYNEIHLENMLKITRMGGVVVPASPAFYHKPQSIDDMINFVVGKLLDVLRIEHNLYKRWRG” as the sequence, how does the protein production read?
**A.** not failed

**Q.** Which protein production does the source give for “NIDLDVQNMAQNALKFGYDEIVKRDKDANLSTLNGAMVVVNHQSGDVLALVGGVDYEKSNYNRATQSMRQPGSSFKPFVYQVAINLGYSPMSEIADISRIFEGGAGNNEDWKPKNEGGKFLGLITLKEALTRSRNLATINLALDMGLDVLYSKLMEFGFKDIPPNLSIVLGSFGISPLEYSKFYTMFGNYGTIKDPQIIRQVQDKTGKTIMEFNSNERKVSDEAQSFLVLDMMRNVVEKGTGRNARVKDIEIAGKTGTTNKSVDAWFCGLTPEIEAIIWYGNDNNKPMRYTEGGARTAAPVFREFLTQYIEKFPDTTR” here?
**A.** failed

**Q.** Which protein production does the source give for “MDGAQPKTNFFERLIARLAREPDSAEDVLNLLRQAHEQEVFDADTLTRLEKVLDFAELEVRDAMITRSRMNVLKENDSIERITAYVIDTAHSRFPVIGEDKDEVLGILHAKDLLKYMFNPEQFHLKSVLRPAVFVPEGKSLTALLKEFREQRNHMAIVIDEYGGTSGLVTFEDIIEQIVGDIEDEFDEDESADNIHSVSAERWRIHAATEIEDINAFFGTEYGSEEADTIGGLVIQELGHLPVRGEKVLIGGLQFTVARADNRRLHTLMATRVK” here?
**A.** failed

**Q.** With “MAHGPTRQKITLTTEVAAEPAEVWARIGDFQDMSWHPAVHSSTGENGNEIDATRVLSLGAADGPTISEILYKYSDEKMSYSYRITDVLVEVLPVTNYSSHLTVKARDGGGSVIEWRGAFYRGYPNNDPPEDLEHHHHHH” as the sequence, how does the protein production read?
**A.** failed
